Literature values as cited in publication PMC7522120.

Target: Folate receptor alpha (Homo sapiens) (UniProt P15328)
Sequence (P15328 25-234): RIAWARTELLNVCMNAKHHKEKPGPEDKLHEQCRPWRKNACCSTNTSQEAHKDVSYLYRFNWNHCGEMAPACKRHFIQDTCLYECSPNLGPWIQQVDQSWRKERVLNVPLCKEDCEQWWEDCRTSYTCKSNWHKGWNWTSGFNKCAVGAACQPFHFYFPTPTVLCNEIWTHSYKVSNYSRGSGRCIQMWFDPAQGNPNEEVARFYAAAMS

Kd: 2 nM
Substance: farletuzumab
